Reference: patent US20080124780A1, “Hybrid immobilized catalytic system with controlled permeability” (NORTHEASTERN UNIVERSITY, priority 2002, published 2008)

Details: not told; for Permeability Coefficient: pH 7.4
Description: In order to estimate the molecular weight cut-off point of the cross-linked chitosan, a model representing the chitosan layer was developed in which a thin membrane acts as a layer surrounding the alginate core. The permeability coefficients for vitamin B2 (molecular weight 376 daltons) and vitamin B12 (molecular weight 1355 daltons) representing low-molecular weight substrates, and myoglobin (molecular weight 14,000 daltons) representing a high molecular weight substrate, were studied.
Chitosan solution was prepared by dissolving the polymer (750 kDa, 87.6% deacetylation) obtained from Pronova Biopolymers (Raymond, Wash.) in 0.1-M acetic acid to make a 0.75% (w/v) solution. Films were made by pouring 10 ml of the solution into a Petri dish (100×15 mm) and air-drying for up to 48 hours. The resulting films were dipped into a 3.0% (w/v) aqueous sodium tri-polyphosphate (Na-TPP, Sigma Chemical Company, St. Louis, Mo.) solution and kept for 1.5 hours. The cross-linked membranes were washed with distilled water once and stored in PBS at 4° C.
Using a side-by-side diffusion apparatus, the permeability coefficients of vitamin B2, vitamin B12, and myoglobin were determined. Briefly, each apparatus was composed of a donor compartment and a receptor compartment, with a 15-ml capacity. The donor and receptor compartments were separated by the membrane.
The donor compartment was filled with 15 ml of vitamin B2, vitamin B12, or myoglobin solution, and the receptor compartment was filled with 15 ml of phosphate buffered-saline (PBS) pH 7.4. The concentrations of vitamin B2, vitamin B12 and myoglobin were 0.1, 1.0, and 0.1 mg/ml respectively. The receptor compartment was stirred and temperature was controlled in both compartments at 37° C. by a circulating water bath. […] The absorbance values of vitamin B2 at 440 nm, vitamin B12 at 361 nm, and myoglobin at 410 nm were measured using a Shimadzu 160U UV/IV spectrophotometer (Columbia, Md.). The concentration of the diffused compound into the receptor compartment was calculated from calibration curves constructed earlier. […]

Substance	permeation through the membrane	Permeability Coefficient
myoglobin	permeated at only a low level	0.34 ± 0.89 cm^2/min × 10^6
vitamin B12		7.46 ± 1.47 cm^2/min × 10^6
